{"source": "patent US20040043468A1", "biological_target": "eIF4E", "test": "cell-based or functional assay"}
{"substance": "dominant negative form of the eIF4E binding protein 4E-BP1 (from UniProt Q13541 1-118)", "values": [{"measurement": "Photinus luciferase activity from the monocistronic PM construct in B104 cells, as a percentage of the activity with a control expression plasmid", "result": "45 % of control"}, {"measurement": "Photinus luciferase activity from the β-globin 5′ UTR monocistronic construct in B104 cells, as a percentage of the activity with a control expression plasmid", "result": "43 % of control"}]}
